Test results as given in publication PMC5736309.

Biological target: Y1F Rpb1 (Rpb1 with a CTD of 26 FSPTSPS repeats) (S. cerevisiae)
Assay: co-IP

B1: 3HA-tagged Nrd1 (natural protein)
chain: MQQDDDFQNFVATLESFKDLKSGISGSRIKKLTTYALDHIDIESKIISLIIDYSRLCPDSHKLGSLYIIDSIGRAYLDETRSNSNSSSNKPGTCAHAINTLGEVIQELLSDAIAKSNQDHKEKIRMLLDIWDRSGLFQKSYLNAIRSKCFAMDISNNTANTASQQLSLDPKQRSKQILSNLKKSPPLNLNISLPTDLTSTDPAKQQAALFQVIAALQKHFKTLPSHTSVGTVAPPQAHTITEYGSRRERERERERYNSRRNRSRSPPAPFSQPSTGRKDRYPSVAQDQYSIGAPNTTFGTNNHHLYPDELNVSNNPHYRPKPVSYDSTLPPDHIKVYSRTLFIGGVPLNMKEWDLANVLKPFAEVQSVILNNSRKHAFVKVYSRHEAENVLQNFNKDGALPLRTRWGVGFGPRDCCDYQHGYSIIPMHRLTDADKKWSVSAQWGGTSGQPLVTGIVFEEPDIIVGEGVSSKAISQKMPTDSGRNGPRSGKPNKSGSISSISPVPYGNAPLASPPPQQYVQPMMQQPYGYAPNQPLPSQGPAAAAPPVPQQQFDPTAQLNSLMNMLNQQQQQQQQS
**Q.** For B1, which fold change in binding against WT Rpb1 is on record?
**A.** Its fold change in binding against WT Rpb1 is 7.3 fold.
